Measurements reported in article PMC11937480 (Communications Biology, 2025).

Molecular target: T1, HA-ZNF449 (UniProt Q6P9G9 1-518)
T1 sequence (looked up): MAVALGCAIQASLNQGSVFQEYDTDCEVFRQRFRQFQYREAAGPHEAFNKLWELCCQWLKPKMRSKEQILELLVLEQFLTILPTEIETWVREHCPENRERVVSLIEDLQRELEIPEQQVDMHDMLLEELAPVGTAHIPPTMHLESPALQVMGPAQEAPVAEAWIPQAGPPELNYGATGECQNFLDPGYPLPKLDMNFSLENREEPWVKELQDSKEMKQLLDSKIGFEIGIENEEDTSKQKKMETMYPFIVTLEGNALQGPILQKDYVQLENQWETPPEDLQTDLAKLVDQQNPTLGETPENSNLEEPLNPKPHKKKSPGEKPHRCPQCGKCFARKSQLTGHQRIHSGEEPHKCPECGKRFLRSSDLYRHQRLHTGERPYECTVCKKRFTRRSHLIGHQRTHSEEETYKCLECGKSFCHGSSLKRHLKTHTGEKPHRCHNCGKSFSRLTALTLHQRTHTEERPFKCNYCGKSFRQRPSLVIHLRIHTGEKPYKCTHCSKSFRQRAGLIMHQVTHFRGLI
Assay: pull-down

binding result: binds
B1: GST-fused PTOV1 (125–283 aa) truncation (domain or fragment, UniProt Q86YD1 125-283, looked up)
chain: VNQGENLETDQWPQKLIMQLIPQQLLTTLGPLFRNSQLAQFHFTNRDCDSLKGLCRIMGNGFAGCMLFPHISPCEVRVLMLLYSSKKKIFMGLIPYDQSGFVSAIRQVITTRKQAVGPGGVNSGPVQIVNNKFLAWSGVMEWQEPRPEPNSRSKRWLPS
